Reference: patent publication EP2155781B1
Blank lines part the entries; values can stand above or below the molecule they belong to. No end group written: not given here.

What was measured:
[1] = target: adrenomedullin receptors in the lungs of dogs (binding profile of the AM1 receptor, CRLR+RAMP2) (dog); assay: cell-based or functional assay
[2] = target: adrenomedullin receptors in the lungs of dogs (binding profile of the AM1 receptor, CRLR+RAMP2) (dog); assay: displacement of iodine-marked hAM in dog lungs

mean single-pass pulmonary extraction of 125I-rAM(1-50) in dogs after CGRP (100 nmol) [1]: 40.6%
mean single-pass pulmonary extraction of 125I-rAM(1-50) in dogs, control before CGRP [1]: 44.6%
Molecule: CGRP (Phoenix Pharmaceuticals) (peptide)

IC50 [2]: 0.055 nM
Molecule: human adrenomedullin hAM(1-52), cyclic (peptide)

IC50 [2]: 7.1 nM
Molecule: linear human adrenomedullin hAM(1-52) (peptide)

mean single-pass pulmonary extraction of 125I-rAM(1-50) in dogs after administration of unlabelled rAM(1-50) (100 nmol) [1]: 21.9%
Molecule: unlabelled rAM(1-50) (from UniProt P43145 94-143) (peptide)

Second part, the molecule before the results:

Molecule: 125I-rAM(1-50), 125I labelled rat adrenomedullin (from UniProt P43145 94-143) (peptide)
mean single-pass pulmonary extraction of 125I-rAM(1-50) in dogs in vivo (indicator dilution), baseline [1]: 36.4%

Molecule: N-terminal acetylated human adrenomedullin (peptide)
IC50 [2]: 0.041 nM

Molecule: hCGRP (from UniProt P06881 83-119) (peptide)
IC50 [2]: 440 nM

B1: hAM2 (peptide, UniProt Q7Z4H4 101-147, looked up)
peptide: TQAQLLRVGCVLGTCQVQNLSHRLWQLMGPAGRQDSAPVDPSSPHSY
IC50 [2]: 480 nM

B2: hAM(13-52) (peptide)
peptide: SFGCRFGTCTVQKLAHQIYQFTDKDKDNVAPRSKISPQGY-NH2
modifications: ends and bridges not checked
IC50 [2]: 34 nM

B3: hAM2(16-47) (peptide, UniProt Q7Z4H4 116-147, looked up)
peptide: QVQNLSHRLWQLMGPAGRQDSAPVDPSSPHSY
modifications: ends and bridges not checked
IC50 [2]: 980 nM

B4: hAM(22-52) (peptide)
peptide: TVQKLAHQIYQFTDKDKDNVAPRSKISPQGY-NH2
IC50 [2]: 810 nM
mean single-pass pulmonary extraction of 125I-rAM(1-50) in dogs after hAM(22-52) (100 nmol) [1]: 31.4%
mean single-pass pulmonary extraction of 125I-rAM(1-50) in dogs before hAM(22-52) [1]: 40%
